Here are results for two substances from patent publication US20230375528.

pKi: −log10 of the molar value.

For data set [1], the target named is ENO1 wild type (Enolase 1) (Homo sapiens) (UniProt P06733). Put plainly: EMSA.
Data set [2] deals with ENO1down (ENO1-K343A) (Homo sapiens) (UniProt P06733). Put plainly: EMSA. The following applies: competition EMSA. A general note: A gel shift assay detects complexes by their altered migration in electrophoresis.
Chain of ENO1down (ENO1-K343A) (Homo sapiens) (P06733 whole entry K343A): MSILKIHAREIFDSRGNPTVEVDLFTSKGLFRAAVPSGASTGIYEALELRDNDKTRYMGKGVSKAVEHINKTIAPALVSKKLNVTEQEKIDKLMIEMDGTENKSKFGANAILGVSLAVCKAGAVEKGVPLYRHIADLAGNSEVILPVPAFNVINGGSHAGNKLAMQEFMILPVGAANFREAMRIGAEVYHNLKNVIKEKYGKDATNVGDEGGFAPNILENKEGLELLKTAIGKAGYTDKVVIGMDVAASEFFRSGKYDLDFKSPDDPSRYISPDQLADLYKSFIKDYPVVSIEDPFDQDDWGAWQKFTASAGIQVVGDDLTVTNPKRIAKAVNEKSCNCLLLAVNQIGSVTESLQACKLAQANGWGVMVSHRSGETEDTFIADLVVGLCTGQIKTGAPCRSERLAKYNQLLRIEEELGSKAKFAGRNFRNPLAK

Chain of ENO1 wild type (Enolase 1) (Homo sapiens) (P06733 2-434): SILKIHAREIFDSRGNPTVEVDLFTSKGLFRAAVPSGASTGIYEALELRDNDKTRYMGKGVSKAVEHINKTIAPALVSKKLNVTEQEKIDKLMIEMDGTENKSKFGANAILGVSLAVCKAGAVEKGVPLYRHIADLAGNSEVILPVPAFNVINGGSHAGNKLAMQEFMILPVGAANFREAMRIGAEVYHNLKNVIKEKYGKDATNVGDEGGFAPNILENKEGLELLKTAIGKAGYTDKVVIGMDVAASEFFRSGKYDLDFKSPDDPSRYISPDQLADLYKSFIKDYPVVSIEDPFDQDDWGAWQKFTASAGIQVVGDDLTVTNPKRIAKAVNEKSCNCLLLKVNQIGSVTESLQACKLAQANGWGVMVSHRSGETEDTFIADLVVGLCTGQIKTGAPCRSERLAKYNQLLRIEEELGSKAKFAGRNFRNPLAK

As usually defined, the pKi is −log10 of the Ki, conventionally taken in molar units. Read a low pKi as a large Ki. Turning to “PABPC1 control 35-mer RNA (GC-matched, downstream of binding site)”, the values for the pKi in data set [1] (competition EMSA with labelled PABPC1 target probe) and in data set [2] were 5.59 and 5.49, respectively.
Turning to PABPC1 5'UTR target 35-mer RNA, the pKi was 7.57 in data set [1] (competition EMSA with labelled PABPC1 target 35-mer probe) and 6.65 in data set [2] (about 5-10-fold decreased RNA binding vs wt).
